Measurements from publication doi:10.1101/2020.10.19.344861 (bioRxiv, 2020).

B1: cherry-core (CC) of CynR, effector binding domain (domain or fragment, Escherichia coli, UniProt P27111 59-299, looked up)
chain: DAGEVWRQYASRALQELGAGKRAIHDVADLTRGSLRIAVTPTFTSYFIGPLMADFYARYPSITLQLQEMSQEKIEDMLCRDELDVGIAFAPVHSPELEAIPLLTESLALVVAQHHPLAVHEQVALSRLHDEKLVLLSAEFATREQIDHYCEKAGLHPQVVIEANSISAVLELIRRTSLSTLLPAAIATQHDGLKAISLAPPLLERTAVLLRRKNSWQTAAAKAFLHMALDKCAVVGGNESR
B2: CynR (full length) (natural protein, Escherichia coli, UniProt P27111 1-299, looked up)
chain: MLSRHINYFLAVAEHGSFTRAASALHVSQPALSQQIRQLEESLGVPLFDRSGRTIRLTDAGEVWRQYASRALQELGAGKRAIHDVADLTRGSLRIAVTPTFTSYFIGPLMADFYARYPSITLQLQEMSQEKIEDMLCRDELDVGIAFAPVHSPELEAIPLLTESLALVVAQHHPLAVHEQVALSRLHDEKLVLLSAEFATREQIDHYCEKAGLHPQVVIEANSISAVLELIRRTSLSTLLPAAIATQHDGLKAISLAPPLLERTAVLLRRKNSWQTAAAKAFLHMALDKCAVVGGNESR

Molecular target: the molecule itself
Experiment: SEC-MALS

| Protein | stoichiometry N |
| --- | --- |
| B1 | 2 |
| B2 | 4 |
